This is an account of results in paper PMC5410337, “Anti-cancer effect of novel PAK1 inhibitor via induction of PUMA-mediated cell death and p21-mediated cell cycle arrest” (Oncotarget, 2017).

The assay has as its target T1, recombinant full-length human PUMA (residue 1-193) (human, UniProt Q9BXH1 1-193).
T1 construct: Expressed as a GST fusion from pGEX-TEV (TEV site present); also called PUMA protein
T1 sequence (looked up): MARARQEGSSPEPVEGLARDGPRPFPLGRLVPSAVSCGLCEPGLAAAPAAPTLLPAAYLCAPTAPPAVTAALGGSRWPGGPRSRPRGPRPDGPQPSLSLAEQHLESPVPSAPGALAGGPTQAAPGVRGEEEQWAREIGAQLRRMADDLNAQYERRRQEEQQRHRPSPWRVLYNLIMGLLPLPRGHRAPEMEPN
Briefly: ELISA; PAK1 recombinant protein immobilised on a 96-well plate with 0.5% paraformaldehyde; chemicals (25 or 50 uM) added, then PUMA protein, 2 hr; detected with anti-PUMA antibody and anti-rabbit IgG-HRP, absorbance at 450 nm. Conditions: both partners purified. A general note: ELISA stands for enzyme-linked immunosorbent assay.

B1: GST-PAK1 N-terminal domain (residues 70-149) (domain or fragment, human, UniProt Q13153 70-149, looked up)
chain: KERPEISLPSDFEHTIHVGFDAVTGEFTGMPEQWARLLQTSNITKSEQKKNPQAVLDVLEFYNSKKTSNSQKYMSFTDKS
notes: Cloned in pGEX-TEV (pGEX-4T1 with a TEV site); pGEX vectors put GST at the N-terminus (surmised); GST is kept on agarose beads in the pull-downs; the discussion says the N-terminal region of PAK1 was used for the screening; also called PAK1 recombinant protein; N-terminal region of PAK1
In the case of B1, the binding result is recorded as “binds”.
